The record followed here is PMC9463443.

The data set has as its target CCANdeltaCT (CENP-LN, CENP-HIKM, CENP-OPQUR; no CENP-C, no CENP-TWSX) (Homo sapiens, UniProt Q8N0S6;Q96H22;Q9H3R5;Q92674;Q9BS16;Q9NSP4;Q9BU64;Q6IPU0;Q7L2Z9;Q71F23;Q13352 …). In words: EMSA; 300 mM NaCl; EMSA: 20 mM HEPES-Na pH 7.5, 300 mM NaCl, 0.5 mM TCEP, 10 min on ice, 1% agarose in 0.5x TAE; SEC: Superose 6 (analytical SEC buffer not given in the material). Particulars: protein: recombinant; tags: His6 C-term on CENP-N and CENP-Q; copies: 1;1;1;1;1;1;1;1;1;1;1; blunt. Background: A gel shift assay detects complexes by their altered migration in electrophoresis.

B1: 147 bp DNA (Widom 601) (dsDNA)
DNA 1: ATCGAGAATCCCGGTGCCGAGGCCGCTCAATTGGTCGTAGACAGCTCTAGCACCGCTTAAACGCACGTACGCGCTGTCCCCCGCGTTTTAACCGCCAAGGGGATTACTCCCTAGTCTCCAGGCACGTGTCACATATATACATCCGAT
DNA 2: ATCGGATGTATATATGTGACACGTGCCTGGAGACTAGGGAGTAATCCCCTTGGCGGTTAAAACGCGGGGGACAGCGCGTACGTGCGTTTAAGCGGTGCTAGAGCTGTCTACGACCAATTGAGCGGCCTCGGCACCGGGATTCTCGAT
In the case of B1, the binding result is given as “binds”.
